Experiment [1] concerns the target PCV2-His-ΔN45 capsid protein (porcine circovirus type 2) (UniProt O56129). The experiment can be described thus: crystal structure; PCV2-His-ΔN45 at ~12 mg/ml, crystals from 2 M ammonium sulfate, 0.1 M citric acid pH 4.6; one icosahedral particle per asymmetric unit; 2.8 Å.
Experiment [2] concerns the target full-length PCV2 capsid protein (porcine circovirus type 2) (UniProt O56129). The experiment can be described thus: cryo-EM structure; in vitro assembled full-length PCV2 VLP, 300 kV Titan Krios, icosahedral reconstruction at 4.12 Å.

“PCV2-His-ΔN45 capsid protein (from UniProt O56129 45-233) (domain or fragment)” yielded a stoichiometry N in experiment [1] of 60 subunits.

“full-length PCV2 capsid protein (from UniProt O56129 1-233) (natural protein)” registered a stoichiometry N in experiment [2] of 60 subunits.

By stoichiometry N is commonly meant the number of molecules, sites or subunits per partner or assembly.

These data come from paper PMC6415871.
